From patent US20240261333A1, “NOVEL TARGETS FOR ENHANCING ANTI-TUMOR IMMUNITY” (THE BROAD INSTITUTE, INC., priority 2021, published 2024)

What was measured:
RPS18 = RPS18 (UniProt P62269); assay: co-IP, IgG control, C-FLAG B3GNT2 cell lysate, mass spectrometry
CFL1 = CFL1 (UniProt P23528); assay: as above
DEFA3 = DEFA3 (UniProt P59666); assay: as above
RPS13 = RPS13 (UniProt P62277); assay: as above
RPS23 = RPS23 (UniProt P62266); assay: as above
EMD = EMD (UniProt P50402); assay: as above
ITGB3 = ITGB3 (UniProt P05106); assay: as above
TAGLN = TAGLN (UniProt Q01995); assay: as above
RPS8 = RPS8 (UniProt P62241); assay: as above
SRSF3 = SRSF3 (UniProt P84103); assay: as above
TMEM59 = TMEM59 (UniProt Q9BXS4); assay: as above
RPL3 = RPL3 (UniProt P39023); assay: as above
RPL37A = RPL37A (UniProt P61513); assay: as above
EIF5B (human) = EIF5B (human) (UniProt O60841); assay: co-IP, IgG control, lysate of cells with C-FLAG B3GNT2; mass spectrometry
HADHB (human) = HADHB (human) (UniProt P55084); assay: as above
PARP1 (human) = PARP1 (human) (UniProt P09874); assay: as above
KRT6B (human) = KRT6B (human) (UniProt P04259); assay: as above
PRBP1 (human) = PRBP1 (human) (UniProt P26599); assay: as above
MOV10 (human) = target: T1, MOV10 (human) (UniProt Q9HCE1); assay: as above
T1 sequence (looked up): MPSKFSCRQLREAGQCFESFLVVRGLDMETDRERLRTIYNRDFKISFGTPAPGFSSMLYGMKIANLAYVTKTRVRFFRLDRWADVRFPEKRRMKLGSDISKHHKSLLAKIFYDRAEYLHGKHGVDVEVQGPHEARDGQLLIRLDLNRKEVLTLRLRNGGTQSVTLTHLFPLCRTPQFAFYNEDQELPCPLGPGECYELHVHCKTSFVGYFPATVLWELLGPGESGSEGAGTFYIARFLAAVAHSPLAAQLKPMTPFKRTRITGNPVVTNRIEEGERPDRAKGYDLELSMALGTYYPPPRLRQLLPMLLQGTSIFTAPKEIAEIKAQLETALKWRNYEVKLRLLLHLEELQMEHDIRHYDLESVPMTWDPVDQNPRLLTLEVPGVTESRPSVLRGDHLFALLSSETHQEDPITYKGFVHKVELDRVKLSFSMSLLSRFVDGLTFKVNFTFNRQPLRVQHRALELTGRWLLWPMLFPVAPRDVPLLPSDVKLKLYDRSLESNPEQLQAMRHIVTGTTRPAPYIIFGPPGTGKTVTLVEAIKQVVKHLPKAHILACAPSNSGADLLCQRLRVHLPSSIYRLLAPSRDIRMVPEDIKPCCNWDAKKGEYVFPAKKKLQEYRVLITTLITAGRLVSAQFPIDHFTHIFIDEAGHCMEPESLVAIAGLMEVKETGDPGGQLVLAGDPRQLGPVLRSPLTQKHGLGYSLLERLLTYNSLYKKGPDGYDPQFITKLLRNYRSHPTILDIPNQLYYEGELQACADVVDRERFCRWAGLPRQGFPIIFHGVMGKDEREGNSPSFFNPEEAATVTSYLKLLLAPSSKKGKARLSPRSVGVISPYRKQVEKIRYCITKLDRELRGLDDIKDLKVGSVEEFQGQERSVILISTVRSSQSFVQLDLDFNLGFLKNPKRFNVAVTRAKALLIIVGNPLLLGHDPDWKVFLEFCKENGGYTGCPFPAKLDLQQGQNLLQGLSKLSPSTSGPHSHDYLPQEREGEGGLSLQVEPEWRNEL

C1orf68 (human) = C1orf68 (human) (UniProt Q5T750); assay: as above
MYH11 (human) = MYH11 (human) (UniProt P35749); assay: as above
ATXN2 (human) = ATXN2 (human) (UniProt Q99700); assay: as above
LMNA (human) = LMNA (human) (UniProt P02545); assay: as above
GGCT (human) = GGCT (human) (UniProt O75223); assay: as above
LSM12 (human) = LSM12 (human) (UniProt Q3MHD2); assay: as above
RPL13 (human) = RPL13 (human) (UniProt P26373); assay: as above
FAU (human) = FAU (human) (UniProt P62861); assay: as above

ITGB3, sequence (P05106 27-788 limits assumed): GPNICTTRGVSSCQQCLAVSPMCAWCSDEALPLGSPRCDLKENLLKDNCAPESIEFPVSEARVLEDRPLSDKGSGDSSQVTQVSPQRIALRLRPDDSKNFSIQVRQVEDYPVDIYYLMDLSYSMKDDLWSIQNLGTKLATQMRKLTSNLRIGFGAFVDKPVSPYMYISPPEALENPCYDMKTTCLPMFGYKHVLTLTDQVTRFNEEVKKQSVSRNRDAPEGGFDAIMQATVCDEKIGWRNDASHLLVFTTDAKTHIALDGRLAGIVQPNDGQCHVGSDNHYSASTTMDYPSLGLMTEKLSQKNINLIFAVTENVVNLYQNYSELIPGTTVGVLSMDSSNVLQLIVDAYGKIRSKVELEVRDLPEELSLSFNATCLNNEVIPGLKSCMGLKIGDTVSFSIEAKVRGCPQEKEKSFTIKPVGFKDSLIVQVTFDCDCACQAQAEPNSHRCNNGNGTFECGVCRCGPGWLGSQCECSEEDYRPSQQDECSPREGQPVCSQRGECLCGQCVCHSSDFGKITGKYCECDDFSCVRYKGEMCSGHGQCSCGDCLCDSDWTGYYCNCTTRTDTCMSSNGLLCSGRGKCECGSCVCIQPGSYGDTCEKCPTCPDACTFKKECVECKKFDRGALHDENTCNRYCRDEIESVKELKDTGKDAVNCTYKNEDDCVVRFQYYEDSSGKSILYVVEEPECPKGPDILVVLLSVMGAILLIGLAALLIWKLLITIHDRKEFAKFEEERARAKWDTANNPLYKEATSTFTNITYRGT
ATXN2 (human), sequence (Q99700 whole entry): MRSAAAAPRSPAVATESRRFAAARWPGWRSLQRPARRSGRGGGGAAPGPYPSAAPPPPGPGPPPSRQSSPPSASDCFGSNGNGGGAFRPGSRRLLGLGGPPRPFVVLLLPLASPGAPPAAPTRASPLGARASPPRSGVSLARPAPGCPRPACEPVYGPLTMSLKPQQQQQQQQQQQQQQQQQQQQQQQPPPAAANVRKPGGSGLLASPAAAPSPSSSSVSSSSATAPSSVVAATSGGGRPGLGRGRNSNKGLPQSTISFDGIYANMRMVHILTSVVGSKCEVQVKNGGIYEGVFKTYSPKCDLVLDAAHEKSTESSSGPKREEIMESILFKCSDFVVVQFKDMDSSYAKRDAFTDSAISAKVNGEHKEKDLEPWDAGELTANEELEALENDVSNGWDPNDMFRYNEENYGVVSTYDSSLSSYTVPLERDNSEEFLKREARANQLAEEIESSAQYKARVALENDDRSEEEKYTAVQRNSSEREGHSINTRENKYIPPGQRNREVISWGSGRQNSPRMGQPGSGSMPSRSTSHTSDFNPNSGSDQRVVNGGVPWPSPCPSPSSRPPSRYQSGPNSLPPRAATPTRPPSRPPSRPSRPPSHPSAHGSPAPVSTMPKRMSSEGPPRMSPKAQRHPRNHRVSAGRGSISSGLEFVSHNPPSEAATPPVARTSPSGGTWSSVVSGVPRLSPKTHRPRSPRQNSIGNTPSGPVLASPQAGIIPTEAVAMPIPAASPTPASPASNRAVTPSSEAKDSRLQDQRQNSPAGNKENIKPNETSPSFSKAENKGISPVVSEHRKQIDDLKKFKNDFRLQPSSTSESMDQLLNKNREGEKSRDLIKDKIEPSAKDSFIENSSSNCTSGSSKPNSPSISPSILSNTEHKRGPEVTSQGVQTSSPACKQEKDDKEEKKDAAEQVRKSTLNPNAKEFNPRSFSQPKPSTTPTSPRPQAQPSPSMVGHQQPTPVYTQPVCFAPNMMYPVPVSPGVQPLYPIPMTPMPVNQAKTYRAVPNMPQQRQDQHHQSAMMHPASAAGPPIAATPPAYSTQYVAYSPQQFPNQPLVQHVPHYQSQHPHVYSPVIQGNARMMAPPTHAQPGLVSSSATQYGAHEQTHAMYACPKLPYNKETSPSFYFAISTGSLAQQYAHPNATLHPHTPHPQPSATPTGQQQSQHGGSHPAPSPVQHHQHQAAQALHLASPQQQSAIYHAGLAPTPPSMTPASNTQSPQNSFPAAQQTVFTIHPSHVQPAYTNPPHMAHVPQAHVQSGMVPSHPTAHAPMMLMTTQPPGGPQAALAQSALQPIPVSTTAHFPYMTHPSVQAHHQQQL
C1orf68 (human), sequence (Q5T750 whole entry): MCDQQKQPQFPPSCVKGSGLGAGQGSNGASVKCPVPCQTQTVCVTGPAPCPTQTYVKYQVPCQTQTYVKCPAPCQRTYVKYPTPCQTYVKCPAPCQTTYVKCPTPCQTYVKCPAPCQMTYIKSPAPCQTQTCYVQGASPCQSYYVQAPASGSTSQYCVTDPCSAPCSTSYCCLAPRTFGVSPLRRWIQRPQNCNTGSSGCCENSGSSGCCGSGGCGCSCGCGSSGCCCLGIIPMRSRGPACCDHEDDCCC
TAGLN, sequence (Q01995 2-201 limits assumed): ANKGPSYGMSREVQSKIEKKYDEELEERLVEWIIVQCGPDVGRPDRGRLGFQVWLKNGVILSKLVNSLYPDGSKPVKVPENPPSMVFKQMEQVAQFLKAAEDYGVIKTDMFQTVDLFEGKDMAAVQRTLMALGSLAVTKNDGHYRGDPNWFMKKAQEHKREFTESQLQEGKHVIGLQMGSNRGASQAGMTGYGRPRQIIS
LSM12 (human), sequence (Q3MHD2 2-195 limits assumed): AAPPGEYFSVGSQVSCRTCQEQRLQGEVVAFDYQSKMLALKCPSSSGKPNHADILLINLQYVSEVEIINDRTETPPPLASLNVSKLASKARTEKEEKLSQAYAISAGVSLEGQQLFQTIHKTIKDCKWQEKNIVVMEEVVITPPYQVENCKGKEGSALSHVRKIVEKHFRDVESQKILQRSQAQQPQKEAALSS
GGCT (human), sequence (O75223 whole entry): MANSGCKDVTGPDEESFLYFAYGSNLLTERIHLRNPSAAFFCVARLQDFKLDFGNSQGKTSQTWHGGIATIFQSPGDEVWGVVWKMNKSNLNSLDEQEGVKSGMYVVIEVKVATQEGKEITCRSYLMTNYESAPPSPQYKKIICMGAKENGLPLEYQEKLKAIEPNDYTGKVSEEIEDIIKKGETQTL
MYH11 (human), sequence (P35749 other isoform, or with tags, fused parts or gaps limits assumed): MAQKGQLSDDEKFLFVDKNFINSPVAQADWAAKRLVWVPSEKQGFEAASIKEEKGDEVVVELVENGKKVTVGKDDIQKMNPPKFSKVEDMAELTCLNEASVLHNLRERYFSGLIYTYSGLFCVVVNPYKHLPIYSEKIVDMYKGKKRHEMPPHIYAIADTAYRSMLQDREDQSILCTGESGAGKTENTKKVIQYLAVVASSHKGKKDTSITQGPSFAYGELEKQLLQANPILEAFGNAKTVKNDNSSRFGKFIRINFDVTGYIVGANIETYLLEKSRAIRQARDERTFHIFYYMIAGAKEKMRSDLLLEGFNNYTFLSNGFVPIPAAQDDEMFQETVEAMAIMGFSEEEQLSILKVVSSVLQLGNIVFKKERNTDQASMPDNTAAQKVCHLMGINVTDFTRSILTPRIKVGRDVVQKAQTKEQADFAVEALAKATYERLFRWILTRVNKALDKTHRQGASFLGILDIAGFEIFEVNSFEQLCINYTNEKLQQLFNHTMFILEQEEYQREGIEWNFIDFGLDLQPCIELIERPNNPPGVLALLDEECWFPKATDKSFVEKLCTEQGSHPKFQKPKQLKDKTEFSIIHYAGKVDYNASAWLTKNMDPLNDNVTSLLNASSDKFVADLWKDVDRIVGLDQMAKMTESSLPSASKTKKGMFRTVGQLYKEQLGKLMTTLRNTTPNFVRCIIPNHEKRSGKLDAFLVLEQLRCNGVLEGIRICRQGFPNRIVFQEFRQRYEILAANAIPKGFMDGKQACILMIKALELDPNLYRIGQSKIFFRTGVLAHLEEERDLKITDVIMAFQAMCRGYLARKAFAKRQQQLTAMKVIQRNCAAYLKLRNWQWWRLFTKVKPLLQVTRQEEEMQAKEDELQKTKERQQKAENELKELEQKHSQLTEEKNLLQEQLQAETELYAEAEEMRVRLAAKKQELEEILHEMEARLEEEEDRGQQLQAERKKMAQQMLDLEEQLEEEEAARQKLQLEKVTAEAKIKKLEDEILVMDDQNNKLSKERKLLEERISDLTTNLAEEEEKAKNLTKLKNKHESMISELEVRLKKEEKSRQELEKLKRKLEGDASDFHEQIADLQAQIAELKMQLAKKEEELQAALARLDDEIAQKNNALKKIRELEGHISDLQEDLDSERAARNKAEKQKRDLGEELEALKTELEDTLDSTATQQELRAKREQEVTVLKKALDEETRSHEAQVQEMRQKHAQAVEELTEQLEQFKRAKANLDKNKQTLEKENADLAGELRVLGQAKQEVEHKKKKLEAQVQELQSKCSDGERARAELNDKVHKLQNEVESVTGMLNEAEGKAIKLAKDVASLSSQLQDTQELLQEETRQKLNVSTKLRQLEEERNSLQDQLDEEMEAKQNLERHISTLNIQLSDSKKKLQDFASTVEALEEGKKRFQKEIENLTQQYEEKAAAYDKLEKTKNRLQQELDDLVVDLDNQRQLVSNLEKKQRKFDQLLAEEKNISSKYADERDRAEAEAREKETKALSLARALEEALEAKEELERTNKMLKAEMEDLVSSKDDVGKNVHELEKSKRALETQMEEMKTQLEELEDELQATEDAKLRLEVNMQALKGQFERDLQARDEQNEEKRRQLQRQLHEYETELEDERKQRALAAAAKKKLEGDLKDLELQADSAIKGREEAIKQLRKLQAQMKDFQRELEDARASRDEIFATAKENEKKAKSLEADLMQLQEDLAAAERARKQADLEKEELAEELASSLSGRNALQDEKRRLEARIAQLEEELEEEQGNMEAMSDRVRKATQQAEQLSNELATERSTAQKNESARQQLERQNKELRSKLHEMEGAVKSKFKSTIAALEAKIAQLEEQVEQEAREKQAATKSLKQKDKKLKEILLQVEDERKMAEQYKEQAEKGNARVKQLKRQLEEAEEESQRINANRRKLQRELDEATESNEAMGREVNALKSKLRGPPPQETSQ
DEFA3, sequence (P59666 65-94 limits assumed): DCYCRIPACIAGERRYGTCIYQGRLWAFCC

## IgG control (Millipore Sigma 12-371) (antibody)
RPS18
  co-IP mass spectrometry count: 9
CFL1
  co-IP mass spectrometry count: 3
DEFA3
  co-IP mass spectrometry count: 5
RPS13
  co-IP mass spectrometry count: 2
RPS23
  co-IP mass spectrometry count: 9
EMD
  co-IP mass spectrometry count: 2
ITGB3
  co-IP mass spectrometry count: 0
TAGLN
  co-IP mass spectrometry count: 0
RPS8
  co-IP mass spectrometry count: 6
SRSF3
  co-IP mass spectrometry count: 3
TMEM59
  co-IP mass spectrometry count: 0
RPL3
  co-IP mass spectrometry count: 5
RPL37A
  co-IP mass spectrometry count: 3
EIF5B (human)
  co-IP mass spectrometry count: 0
HADHB (human)
  co-IP mass spectrometry count: 0
PARP1 (human)
  co-IP mass spectrometry count: 0
KRT6B (human)
  co-IP mass spectrometry count: 295
PRBP1 (human)
  co-IP mass spectrometry count: 6
MOV10 (human)
  co-IP mass spectrometry count: 3
C1orf68 (human)
  co-IP mass spectrometry count: 4
MYH11 (human)
  co-IP mass spectrometry count: 5
ATXN2 (human)
  co-IP mass spectrometry count: 3
LMNA (human)
  co-IP mass spectrometry count: 18
GGCT (human)
  co-IP mass spectrometry count: 0
LSM12 (human)
  co-IP mass spectrometry count: 0
RPL13 (human)
  co-IP mass spectrometry count: 8
FAU (human)
  co-IP mass spectrometry count: 5
